Assay results published in US20140107039.

Legend:
[1] = test system: H3K27ac peptide (18-37)
[2] = test system: H3.3K27M peptide (18-37)
H3.3K27M peptide (18-37), sequence (chain, as listed by the source): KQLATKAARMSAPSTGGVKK

Polycomb Repressive Complex 2 (PRC2), purified through FLAG-tagged human EED from HeLa or HEK293T nuclear extract
Apparent Vmax of PRC2 methyltransferase reaction at varying mononucleosome concentrations [1]: PRC2 reactions that contained H3K27ac peptide of identical peptide concentrations did not decrease the apparent Vmax of the reaction
Apparent Vmax of PRC2 methyltransferase reaction at varying mononucleosome concentrations [2]: showed a reduction in the apparent Vmax by addition of the K27M peptide
